# Data as given in IntAct's records for PubMed 26053850.
# B1: ADP-ribosylation factor-binding protein GGA1 (Homo sapiens), Q9UJY5 (parent)
# chain: MEPAMEPETLEARINRATNPLNKELDWASINGFCEQLNEDFEGPPLATRLLAHKIQSPQEWEAIQALTVLETCMKSCGKRFHDEVGKFRFLNELIKVVSPKYLGSRTSEKVKNKILELLYSWTVGLPEEVKIAEAYQMLKKQGIVKSDPKLPDDTTFPLPPPRPKNVIFEDEEKSKMLARLLKSSHPEDLRAANKLIKEMVQEDQKRMEKISKRVNAIEEVNNNVKLLTEMVMSHSQGGAAAGSSEDLMKELYQRCERMRPTLFRLASDTEDNDEALAEILQANDNLTQVINLYKQLVRGEEVNGDATAGSIPGSTSALLDLSGLDLPPAGTTYPAMPTRPGEQASPEQPSASVSLLDDELMSLGLSDPTPPSGPSLDGTGWNSFQSSDATEPPAPALAQAPSMESRPPAQTSLPASSGLDDLDLLGKTLLQQSLPPESQQVRWEKQQPTPRLTLRDLQNKSSSCSSPSSSATSLLHTVSPEPPRPPQQPVPTELSLASITVPLESIKPSNILPVTVYDQHGFRILFHFARDPLPGRSDVLVVVVSMLSTAPQPIRNIVFQSAVPKVMKVKLQPPSGTELPAFNPIVHPSAITQVLLLANPQKEKVRLRYKLTFTMGDQTYNEMGDVDQFPPPETWGSL
# Variants of: B1
# Conditions: with bace1_human BACE1, P56817
# Chain of bace1_human BACE1, P56817 (P56817 whole entry): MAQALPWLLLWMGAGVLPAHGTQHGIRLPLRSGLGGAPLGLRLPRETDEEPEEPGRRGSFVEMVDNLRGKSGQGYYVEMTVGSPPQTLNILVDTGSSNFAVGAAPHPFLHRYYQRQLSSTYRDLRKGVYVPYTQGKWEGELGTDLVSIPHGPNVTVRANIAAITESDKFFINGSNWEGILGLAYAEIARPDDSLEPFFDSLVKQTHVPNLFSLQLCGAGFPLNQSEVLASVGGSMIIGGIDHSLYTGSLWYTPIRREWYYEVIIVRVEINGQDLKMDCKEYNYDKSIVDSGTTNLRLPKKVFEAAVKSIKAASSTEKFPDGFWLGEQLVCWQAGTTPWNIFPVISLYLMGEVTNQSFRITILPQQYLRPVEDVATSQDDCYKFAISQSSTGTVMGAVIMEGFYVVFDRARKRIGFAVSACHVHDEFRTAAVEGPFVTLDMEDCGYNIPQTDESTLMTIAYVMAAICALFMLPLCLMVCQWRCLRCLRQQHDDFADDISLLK
row,Variant,effect of a mutation on the interaction
1,S355A,with no effect
2,S355D,with no effect
